Experimental findings from patent US20230036060A1, “DUAL-CONTROLLED DRUG AND PHOTOACTIVATABLE SYSTEM FOR SPATIOTEMPORAL CONTROL OF CELL THERAPY” (THE REGENTS OF THE UNIVERSITY OF CALIFORNIA, priority 2019, published 2023) are described below.

The subject of experiment [1] is EGFP Reporter HEK293T cells. The experiment is described as follows: Cre-loxP recombination in EGFP Reporter HEK293T cells, % EGFP+ by flow cytometry normalized to Cre groups. The format is cell-based. To be noted: Dark, Ambient, Light (5 W/m^2, 7.5 s per min, 24 h); n=5. The source says:
FIG. 2A is a schematic representation of the EGFP Reporter genetic construct before and after Cre-loxP recombination; the hEF1α promoter drives mCherry expression.
FIG. 3E graphically illustrates the number of recombined cells after recombination in TamPA-Cre-nH1^+ EGFP Reporter HEK293T cells subjected (Light) or not (Ambient, Dark) to Protocol B (n=3) of FIG. 3C; reporter is untransfected EGFP Reporter HEK293T cell line (n=3), blue light stimulation started and flow cytometry measurements taken 24 h and 72 h post-transfection, respectively; percentage of recombined HEK293T cells (normalized to maximal recombination)=100%*(% of EGFP^+ cells)/(mean % of EGFP^+ cells in corresponding Cre groups). […]
To compare the two photoactivatable split-Cre systems, EGFP Reporter HEK293T cells were or were not (Reporter) transiently transfected with either PA-Cre-C, PA-Cre-M, or Cre constructs (Fig. S1A-D). […] The percentage of EGFP^+ recombined cells in each cell group was determined by flow cytometry 24 h later. […]

Experiment [2] has as its system CD38+ Toledo Target cells. As to the kind of experiment: Activation of myc-α-CD38 Receptor Jurkat T cells upon binding to CD38+ Toledo Target cells. The format is cell-based. To be noted: Jurkat T cells stably expressing the receptor. An excerpt:
FIG. 12D graphically illustrates representative histograms from flow cytometry showing that α-CD19-CAR-EGFP^+ Jurkat T cells both (I) bind to and (II) are activated by CD19^+ Toledo Target cells, while myc-α-CD38-Receptor^+ Jurkat T cells (III) bind to but (IV) are not activated by CD38^+ Toledo Target cells;
The TamPA-Cre system was next applied to induce CAR expression in the physiologically relevant Jurkat T cell line. […] Likewise, Jurkat T cells stably expressing myc-α-CD38 Receptor were not activated upon binding to CD38^+ Toledo Target cells, as expected (Fig. S6D).

B1: NLS-pMag-CreC: nucleus-localized C-terminal split-Cre protein half, SEQ ID NO: 1 (protein)
chain: PKKKRKVGGHTLYAPGGYDIMGYLRQIRNRPNPQVELGPVDTSCALILCDLKQKDTPIVYASEAFLYMTGYSNAEVLGRNCRFLQSPDGMVKPKSTRKYVDSNTINTMRKAIDRNAEVQVEVVNFKKNGQRFVNFLTMIPVRDETGEYRYSMGFQCETEGTNRKWFPAEPEDVRDYLLYLQARGLAVKTIQQHLGQLNMLHRRSGLPRPSDSNAVSLVMRRIRKENVDAGERAKQALAFERTDFDQVRSLMENSDRCQDIRNLAFLGIAYNTLLRIAEIARIRVKDISRTDGGRMLIHIGRTKTLVSTAGVEKALSLGVTKLVERWISVSGVADDPNNYLFCRVRKNGVAAPSATSQLSTRALEGIFEATHRLIYGAKDDSGQRYLAWSGHSARVGAARDMARAGVSIPEIMQAGGWTNVNIVMNYIRNLDSETGAMVRLLEDGD
modifications: Synthetic exemplary nucleic acid sequence for NLS-pMag-CreC
For the molecule B1, in experiment [1], the “Cre-loxP recombination by one split-Cre half alone versus Reporter” value was “no significant difference”.

B2: myc-α-CD38 Receptor: c-myc-tagged α-CD38 anchoring receptor expressed in Jurkat T cells, SEQ ID NO: 8 (protein)
chain: MEFGLSWLFLVAILKGVQCSEQKLISEEDLDIQLTQSSSSFSVSLGDRVTITCKASEDIYNRLAWYQQKPGNAPRLLISGATSLETGVPSRFSGSGSGKDYTLSITSLQTEDVATYYCQQYWSTPTFGGGTKLEIKRADAAPTVSIFPPSGGGGSGGGGSGGGGSGGGGSQVQLKQSGPSLVQPSQRLSITCTVSGFSLISYGVHWVRQSPGKGLEWLGVIWRGGSTDYNAAFMSRLSITKDNSKSQVFFKMNSLQADDTAIYFCAKTLITTGYAMDYWGQGTSVTVSSAAAIEVMYPPPYLDNEKSNGTIIHVKGKHLCPSPLFPGPSKPFWVLVVVGGVLACYSLLVTVAFIIFWVRSKRS
modifications: Synthetic exemplary nucleic acid sequence for exemplary myc-alpha-CD38-Receptor
On to B2, for which the “T cell activation upon binding to Target cells” value in experiment [2] is “not activated”.
